Data published in article PMC9482650, “Quantitative fragmentomics allow affinity mapping of interactomes” (Nature Communications, 2022).

Tests used:
Assay in all cases: holdup assay
Parameters in all cases: key: below the threshold = too weak to quantify, mostly under pKd 3.1 to 4
Details in all cases: plain residues with an end cap or a label only (N-terminal biotin on a linker: ado-ado)
LIN7C, Q9NUP9 = molecular target: T1, LIN7C, Q9NUP9
T1 sequence (Q9NUP9 88-185, limits assumed, looked up): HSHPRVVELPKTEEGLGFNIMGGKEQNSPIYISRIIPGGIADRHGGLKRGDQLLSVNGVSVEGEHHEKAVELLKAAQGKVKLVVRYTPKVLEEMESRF

IL16_4, Q14005 = molecular target: IL16_4, Q14005
IL16_4, Q14005, sequence (Q14005 1229-1329): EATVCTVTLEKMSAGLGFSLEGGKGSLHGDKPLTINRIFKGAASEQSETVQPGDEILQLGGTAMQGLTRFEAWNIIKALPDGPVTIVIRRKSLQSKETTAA

LNX2_3, Q8N448 = molecular target: T2, LNX2_3, Q8N448
T2 sequence (Q8N448 463-564, limits assumed, looked up): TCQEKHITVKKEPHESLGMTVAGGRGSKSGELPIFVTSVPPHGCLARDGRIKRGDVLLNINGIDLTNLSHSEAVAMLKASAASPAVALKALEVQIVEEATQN

SNTB1, Q13884 = molecular target: T3, SNTB1, Q13884
T3 sequence (Q13884 107-205, limits assumed, looked up): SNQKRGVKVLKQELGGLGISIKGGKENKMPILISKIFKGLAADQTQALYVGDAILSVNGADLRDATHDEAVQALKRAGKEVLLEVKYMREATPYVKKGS

LNX1_3, Q8TBB1 = molecular target: LNX1_3, Q8TBB1
LNX1_3, Q8TBB1, sequence (Q8TBB1 500-596): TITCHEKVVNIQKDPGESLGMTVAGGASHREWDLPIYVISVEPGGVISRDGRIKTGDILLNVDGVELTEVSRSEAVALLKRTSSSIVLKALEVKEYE

LAP2, Q96RT1 = molecular target: LAP2, Q96RT1
LAP2, Q96RT1, sequence (Q96RT1 other isoform, or with tags, fused parts or gaps): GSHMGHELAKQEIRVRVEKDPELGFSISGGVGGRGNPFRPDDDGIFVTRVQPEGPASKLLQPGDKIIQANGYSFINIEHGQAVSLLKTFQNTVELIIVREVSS

Inadl_6, Q8NI35 = molecular target: Inadl_6, Q8NI35
Inadl_6, Q8NI35, sequence (Q8NI35 1058-1167): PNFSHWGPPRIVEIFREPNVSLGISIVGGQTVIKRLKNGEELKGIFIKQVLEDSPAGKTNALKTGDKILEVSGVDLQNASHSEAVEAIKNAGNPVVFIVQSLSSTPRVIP

MAGI2_4, Q86UL8 = molecular target: MAGI2_4, Q86UL8
MAGI2_4, Q86UL8, sequence (Q86UL8 772-865): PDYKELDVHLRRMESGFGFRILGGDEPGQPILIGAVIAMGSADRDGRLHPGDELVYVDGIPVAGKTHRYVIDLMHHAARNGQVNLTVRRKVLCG

AHNAK1, Q09666 = molecular target: AHNAK1, Q09666
AHNAK1, Q09666, sequence (Q09666 4-100): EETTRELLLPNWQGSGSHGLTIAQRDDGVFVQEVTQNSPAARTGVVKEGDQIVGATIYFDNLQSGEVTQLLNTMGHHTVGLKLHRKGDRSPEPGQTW

Inadl_3, Q8NI35 = molecular target: Inadl_3, Q8NI35
Inadl_3, Q8NI35, sequence (Q8NI35 359-469): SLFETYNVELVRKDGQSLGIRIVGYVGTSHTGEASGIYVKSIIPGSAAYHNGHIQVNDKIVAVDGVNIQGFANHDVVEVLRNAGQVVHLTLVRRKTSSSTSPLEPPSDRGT

PDZRN3_1, Q9UPQ7 = molecular target: T4, PDZRN3_1, Q9UPQ7
T4 sequence (Q9UPQ7 244-349, limits assumed, looked up): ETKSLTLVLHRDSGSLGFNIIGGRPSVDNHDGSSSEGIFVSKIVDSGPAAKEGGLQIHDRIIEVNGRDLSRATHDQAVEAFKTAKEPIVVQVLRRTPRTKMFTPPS

SNX27, Q96L92 = molecular target: SNX27, Q96L92
APBA3_1, O96018 = molecular target: T5, APBA3_1, O96018
T5 sequence (O96018 389-490, limits assumed, looked up): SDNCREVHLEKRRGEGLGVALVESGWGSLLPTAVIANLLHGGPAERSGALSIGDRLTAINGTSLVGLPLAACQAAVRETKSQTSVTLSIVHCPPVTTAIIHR

SNTG2, Q9NY99 = molecular target: T6, SNTG2, Q9NY99
T6 sequence (Q9NY99 68-166, limits assumed, looked up): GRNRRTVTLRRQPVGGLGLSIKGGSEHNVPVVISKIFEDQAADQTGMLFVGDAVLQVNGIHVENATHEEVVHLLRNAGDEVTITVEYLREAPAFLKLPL

HTRA4, P83105 = molecular target: T7, HTRA4, P83105
T7 sequence (P83105 378-476, limits assumed, looked up): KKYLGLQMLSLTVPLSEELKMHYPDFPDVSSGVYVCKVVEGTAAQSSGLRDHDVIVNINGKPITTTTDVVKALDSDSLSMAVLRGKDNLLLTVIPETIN

TJP1_3, Q07157 = molecular target: TJP1_3, Q07157
TJP1_3, Q07157, sequence (Q07157 416-512): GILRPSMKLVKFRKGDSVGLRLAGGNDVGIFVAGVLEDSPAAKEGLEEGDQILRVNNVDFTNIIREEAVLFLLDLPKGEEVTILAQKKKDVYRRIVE

NHERF3_4, Q5T2W1 = molecular target: T8, NHERF3_4, Q5T2W1
T8 sequence (Q5T2W1 373-468, limits assumed, looked up): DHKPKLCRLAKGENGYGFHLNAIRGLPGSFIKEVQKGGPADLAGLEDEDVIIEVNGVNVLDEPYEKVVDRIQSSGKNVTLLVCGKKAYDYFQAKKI

DLG1_3, Q12959 = molecular target: DLG1_3, Q12959
DLG1_3, Q12959, sequence (Q12959 457-571): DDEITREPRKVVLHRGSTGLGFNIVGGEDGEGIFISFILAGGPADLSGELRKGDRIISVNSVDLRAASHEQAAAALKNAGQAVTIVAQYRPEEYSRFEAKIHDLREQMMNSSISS

DLG2_2, Q15700 = molecular target: DLG2_2, Q15700
DLG2_2, Q15700, sequence (Q15700 189-283): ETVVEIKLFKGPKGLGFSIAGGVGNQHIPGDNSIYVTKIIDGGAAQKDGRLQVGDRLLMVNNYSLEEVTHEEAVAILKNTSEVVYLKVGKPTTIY

LNX1_2, Q8TBB1 = molecular target: LNX1_2, Q8TBB1
LNX1_2, Q8TBB1, sequence (Q8TBB1 371-470): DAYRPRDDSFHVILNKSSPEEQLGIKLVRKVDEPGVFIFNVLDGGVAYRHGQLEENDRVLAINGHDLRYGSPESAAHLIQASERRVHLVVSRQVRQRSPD

TIAM2, Q8IVF5 = molecular target: T9, TIAM2, Q8IVF5
T9 sequence (Q8IVF5 885-986, limits assumed, looked up): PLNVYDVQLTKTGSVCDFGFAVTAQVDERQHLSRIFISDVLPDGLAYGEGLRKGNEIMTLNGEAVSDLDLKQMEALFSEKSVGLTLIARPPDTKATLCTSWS

GRIP1_4, Q9Y3R0 = molecular target: T10, GRIP1_4, Q9Y3R0
T10 sequence (Q9Y3R0 467-571, limits assumed, looked up): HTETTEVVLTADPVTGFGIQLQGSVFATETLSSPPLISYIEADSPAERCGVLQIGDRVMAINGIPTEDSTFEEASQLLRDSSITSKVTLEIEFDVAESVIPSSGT

ARHGEF11, O15085 = molecular target: T11, ARHGEF11, O15085
T11 sequence (O15085 42-136, limits assumed, looked up): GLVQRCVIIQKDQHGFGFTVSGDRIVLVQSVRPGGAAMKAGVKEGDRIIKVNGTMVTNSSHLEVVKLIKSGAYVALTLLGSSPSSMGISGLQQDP

PDZD2_2, O15018 = molecular target: T12, PDZD2_2, O15018
T12 sequence (O15018 329-429, limits assumed, looked up): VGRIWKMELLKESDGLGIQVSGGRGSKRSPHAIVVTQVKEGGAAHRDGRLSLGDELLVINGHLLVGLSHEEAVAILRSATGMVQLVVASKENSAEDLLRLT

SCRIB_2, Q14160 = molecular target: SCRIB_2, Q14160
SCRIB_2, Q14160, sequence (Q14160 857-960): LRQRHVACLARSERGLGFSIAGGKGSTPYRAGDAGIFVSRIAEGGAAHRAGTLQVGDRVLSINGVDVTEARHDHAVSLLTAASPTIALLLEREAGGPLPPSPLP

FRMPD2_2, Q68DX3 = molecular target: FRMPD2_2, Q68DX3
FRMPD2_2, Q68DX3, sequence (Q68DX3 944-1038): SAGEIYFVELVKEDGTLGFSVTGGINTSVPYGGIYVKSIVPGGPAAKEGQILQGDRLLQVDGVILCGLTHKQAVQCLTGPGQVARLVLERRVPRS

B1: SCN4B, Q8IWT1 (peptide)
chain: KAEEKPPSKV
pKd (LIN7C, Q9NUP9): below the threshold | pKd (IL16_4, Q14005): 3.65 | pKd (LNX2_3, Q8N448): below the threshold | pKd (SNTB1, Q13884): below the threshold | pKd (LNX1_3, Q8TBB1): below the threshold | pKd (LAP2, Q96RT1): 3.89 | pKd (Inadl_6, Q8NI35): below the threshold | pKd (MAGI2_4, Q86UL8): below the threshold | pKd (AHNAK1, Q09666): below the threshold | pKd (Inadl_3, Q8NI35): below the threshold | pKd (PDZRN3_1, Q9UPQ7): below the threshold | pKd (SNX27, Q96L92): below the threshold | pKd (APBA3_1, O96018): below the threshold | pKd (SNTG2, Q9NY99): below the threshold | pKd (HTRA4, P83105): 3.93 | pKd (TJP1_3, Q07157): below the threshold | pKd (NHERF3_4, Q5T2W1): below the threshold | pKd (DLG1_3, Q12959): below the threshold | pKd (DLG2_2, Q15700): below the threshold | pKd (LNX1_2, Q8TBB1): below the threshold | pKd (TIAM2, Q8IVF5): below the threshold | pKd (GRIP1_4, Q9Y3R0): below the threshold | pKd (ARHGEF11, O15085): below the threshold | pKd (PDZD2_2, O15018): 3.95 | pKd (SCRIB_2, Q14160): below the threshold | pKd (FRMPD2_2, Q68DX3): below the threshold

B2: KCNJ9, Q92806 (peptide)
chain: LPPPESESKV
pKd (LIN7C, Q9NUP9): below the threshold | pKd (IL16_4, Q14005): below the threshold | pKd (LNX2_3, Q8N448): below the threshold | pKd (SNTB1, Q13884): 4.32 | pKd (LNX1_3, Q8TBB1): below the threshold | pKd (LAP2, Q96RT1): 3.85 | pKd (Inadl_6, Q8NI35): below the threshold | pKd (MAGI2_4, Q86UL8): below the threshold | pKd (AHNAK1, Q09666): below the threshold | pKd (Inadl_3, Q8NI35): below the threshold | pKd (PDZRN3_1, Q9UPQ7): below the threshold | pKd (SNX27, Q96L92): 5.43 | pKd (APBA3_1, O96018): below the threshold | pKd (SNTG2, Q9NY99): 3.74 | pKd (HTRA4, P83105): below the threshold | pKd (TJP1_3, Q07157): below the threshold | pKd (NHERF3_4, Q5T2W1): below the threshold | pKd (DLG1_3, Q12959): below the threshold | pKd (DLG2_2, Q15700): below the threshold | pKd (LNX1_2, Q8TBB1): below the threshold | pKd (TIAM2, Q8IVF5): 4.05 | pKd (GRIP1_4, Q9Y3R0): below the threshold | pKd (ARHGEF11, O15085): below the threshold | pKd (PDZD2_2, O15018): 4.81 | pKd (SCRIB_2, Q14160): below the threshold | pKd (FRMPD2_2, Q68DX3): 3.56

B3: SLC22A3, O75751 (peptide)
chain: KKTPVSRSHL
pKd (LIN7C, Q9NUP9): below the threshold | pKd (IL16_4, Q14005): below the threshold | pKd (LNX2_3, Q8N448): below the threshold | pKd (SNTB1, Q13884): below the threshold | pKd (LNX1_3, Q8TBB1): below the threshold | pKd (LAP2, Q96RT1): below the threshold | pKd (Inadl_6, Q8NI35): below the threshold | pKd (MAGI2_4, Q86UL8): below the threshold | pKd (AHNAK1, Q09666): below the threshold | pKd (Inadl_3, Q8NI35): below the threshold | pKd (PDZRN3_1, Q9UPQ7): below the threshold | pKd (SNX27, Q96L92): 3.65 | pKd (APBA3_1, O96018): below the threshold | pKd (SNTG2, Q9NY99): 3.48 | pKd (HTRA4, P83105): 3.81 | pKd (TJP1_3, Q07157): below the threshold | pKd (NHERF3_4, Q5T2W1): below the threshold | pKd (DLG1_3, Q12959): below the threshold | pKd (DLG2_2, Q15700): below the threshold | pKd (LNX1_2, Q8TBB1): below the threshold | pKd (TIAM2, Q8IVF5): below the threshold | pKd (GRIP1_4, Q9Y3R0): below the threshold | pKd (ARHGEF11, O15085): 3.56 | pKd (PDZD2_2, O15018): below the threshold | pKd (SCRIB_2, Q14160): below the threshold | pKd (FRMPD2_2, Q68DX3): below the threshold

B4: RCN2, Q14257 (peptide)
chain: HDDYFYHDEL
pKd (LIN7C, Q9NUP9): below the threshold | pKd (IL16_4, Q14005): below the threshold | pKd (LNX2_3, Q8N448): below the threshold | pKd (SNTB1, Q13884): below the threshold | pKd (LNX1_3, Q8TBB1): below the threshold | pKd (LAP2, Q96RT1): below the threshold | pKd (Inadl_6, Q8NI35): below the threshold | pKd (MAGI2_4, Q86UL8): below the threshold | pKd (AHNAK1, Q09666): below the threshold | pKd (Inadl_3, Q8NI35): 3.85 | pKd (PDZRN3_1, Q9UPQ7): below the threshold | pKd (SNX27, Q96L92): 3.77 | pKd (APBA3_1, O96018): below the threshold | pKd (SNTG2, Q9NY99): below the threshold | pKd (HTRA4, P83105): below the threshold | pKd (TJP1_3, Q07157): below the threshold | pKd (NHERF3_4, Q5T2W1): below the threshold | pKd (DLG1_3, Q12959): below the threshold | pKd (DLG2_2, Q15700): below the threshold | pKd (LNX1_2, Q8TBB1): below the threshold | pKd (TIAM2, Q8IVF5): below the threshold | pKd (GRIP1_4, Q9Y3R0): below the threshold | pKd (ARHGEF11, O15085): 4 | pKd (PDZD2_2, O15018): below the threshold | pKd (SCRIB_2, Q14160): below the threshold | pKd (FRMPD2_2, Q68DX3): below the threshold
